In publication PMC10161774:

Target: T1, Recombinant tissue transglutaminase (tG) (human), P21980
T1 chain: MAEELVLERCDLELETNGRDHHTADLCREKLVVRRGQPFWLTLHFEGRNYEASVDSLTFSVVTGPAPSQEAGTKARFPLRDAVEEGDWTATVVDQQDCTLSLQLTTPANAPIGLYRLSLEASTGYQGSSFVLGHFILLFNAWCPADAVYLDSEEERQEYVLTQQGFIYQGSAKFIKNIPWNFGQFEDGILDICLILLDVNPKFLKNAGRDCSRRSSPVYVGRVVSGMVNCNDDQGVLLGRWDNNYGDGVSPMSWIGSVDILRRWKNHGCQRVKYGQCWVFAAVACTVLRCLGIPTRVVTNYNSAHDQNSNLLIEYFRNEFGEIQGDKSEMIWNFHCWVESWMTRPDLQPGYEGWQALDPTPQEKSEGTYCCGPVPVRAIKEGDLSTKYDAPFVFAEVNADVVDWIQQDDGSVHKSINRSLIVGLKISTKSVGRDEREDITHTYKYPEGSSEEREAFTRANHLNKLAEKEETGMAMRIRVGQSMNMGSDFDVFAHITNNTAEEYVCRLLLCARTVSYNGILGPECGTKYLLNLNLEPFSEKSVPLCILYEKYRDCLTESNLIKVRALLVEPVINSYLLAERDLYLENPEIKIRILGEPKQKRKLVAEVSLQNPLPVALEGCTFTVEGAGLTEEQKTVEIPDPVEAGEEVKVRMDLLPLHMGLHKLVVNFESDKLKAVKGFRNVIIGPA
Assay: time-resolved SAXS; Kenics mixer (straight opening device, reaction class 3); 2 mg ml^-1 tG mixed with 4 mM CaCl2 in 20 mM HEPES pH 7.5, 100 mM NaCl, 10% glycerol, 1 mM DTT; time points 32-1500 ms; monomer to dimer
Settings: remark: other sources report otherwise

stoichiometry N: 2
B1: Recombinant tissue transglutaminase (tG), P21980 1-687 (enzyme)
chain: MAEELVLERCDLELETNGRDHHTADLCREKLVVRRGQPFWLTLHFEGRNYEASVDSLTFSVVTGPAPSQEAGTKARFPLRDAVEEGDWTATVVDQQDCTLSLQLTTPANAPIGLYRLSLEASTGYQGSSFVLGHFILLFNAWCPADAVYLDSEEERQEYVLTQQGFIYQGSAKFIKNIPWNFGQFEDGILDICLILLDVNPKFLKNAGRDCSRRSSPVYVGRVVSGMVNCNDDQGVLLGRWDNNYGDGVSPMSWIGSVDILRRWKNHGCQRVKYGQCWVFAAVACTVLRCLGIPTRVVTNYNSAHDQNSNLLIEYFRNEFGEIQGDKSEMIWNFHCWVESWMTRPDLQPGYEGWQALDPTPQEKSEGTYCCGPVPVRAIKEGDLSTKYDAPFVFAEVNADVVDWIQQDDGSVHKSINRSLIVGLKISTKSVGRDEREDITHTYKYPEGSSEEREAFTRANHLNKLAEKEETGMAMRIRVGQSMNMGSDFDVFAHITNNTAEEYVCRLLLCARTVSYNGILGPECGTKYLLNLNLEPFSEKSVPLCILYEKYRDCLTESNLIKVRALLVEPVINSYLLAERDLYLENPEIKIRILGEPKQKRKLVAEVSLQNPLPVALEGCTFTVEGAGLTEEQKTVEIPDPVEAGEEVKVRMDLLPLHMGLHKLVVNFESDKLKAVKGFRNVIIGPA
